The values that follow come from article PMC10746540.

B1: PYR1*^MANDI, pBD two-hybrid fusion [not stated] / HAB1*, pACT two-hybrid fusion [not stated] (parent)
chain 1: MPSELTPEERSELKNSIAEFHTYQLDPGSCSSLHAQRIHAPPELVWSIVRRFDKPQTHRHFIKSCSVEQNFEMRVGCTRDIIVISGLPANTSTERLDILDDERRVTGASIIGGEHRLTNYKGVTTVHRFEKENRIWTVVLESYVVDMPEGNSEDDTRIVVDDVVKLNLQKLATVAEAMARNSGDGSGSQVT
chain 2: MEEMTPAVAMTLSLAANTMCESSPVEITQLKNVTDAADLLSDSENQSFCNGGTECTMEDVSELEEVGEQDLLKTLSDTRSGSSNVFDEDDVLSVVEDNSAVISEGLLVVDAGSELSLSNTAMEIDNGRVLATAIIVGESSIEQVPTAEVLIAGVNQDTNTSEVVIRLPDENSNHLVKGRSVYELDCIPLWGTVSIQGNASEMEAAFAVSPHFLKLPIKMLMGDHEGMSPSLTHLTGHFFGVYDGHGGHKVADYCRDRLHFALAEEIERIKDELCKRNTGEGRQVQWDKVFTSCFLTVDGEIEGKIGRAVVGSSDKVLEAVADETVGSTAVVALVCSSHIVVSNCGDSRAVLFRGKEAMPLSVDHKPDREDEYARIENAGGKVIQWQGARVFGRLAMSRSIGDRYLKPYVIPEPEVTFMPRSREDECLILASDGLWDVMNNQEVCEIARRRILMWHKKNGAPPLAERGKGIDPACQAAADYLSMLALQKGSKDNISIIVIDLKAQAKFKTRT

Variants of B1 are the subject of the first assay. Kind of assay: β-gal-based Y2H assay. The note with it: with HAB1*, ligand: pirimiphos.
On to chain 1 S92M, for which the screen value came to 25 µM.

Staying with this assay, now noted: with HAB1*, ligand: azinphos-ethyl.
Regarding chain 1 V83W I110Y R116S, the screen value is 0.25 µM. On the same count and under the same terms, under chain 1 V83W I110Y R116S V164Y stands 0.01 µM; under chain 1 V83W R116S, 0.01 µM.

The assay is the same for the next values; noted with them: with HAB1*, ligand: disulfoton.
Turning to chain 1 M147V, the screen value came to 100 µM.

The same assay, now with this note: with HAB1*, ligand: chlorofenvinphos.
On to chain 1 G122Q, for which the screen value was 12.5 µM.

The assay is the same for the next values; noted with them: with HAB1*, ligand: malathion.
On to chain 1 V83A, for which the screen value was found to be 100 µM.

The assay is the same for the next values; noted with them: with HAB1*, ligand: azinphos.
Regarding chain 1 V83W R116S, the screen value came out at 10 µM.

Still in this assay, the particulars now being: with HAB1*, ligand: diazinon.
On to chain 1 A108V, for which the screen value was 100 µM.
